Laboratory results published in the supplement of paper PMC11246515.
± gives the standard deviation of the averaged measurements.

Experiment: total protein half-life in vivo (active degradation + dilution); higher = more stable protein
[1] = E. coli NCM3722 delta-clpP delta-lon delta-hslV, growth: N-lim chemostat, doubling time 6 h
[2] = E. coli NCM3722 delta-clpP, growth: N-lim chemostat, doubling time 6 h
[3] = E. coli NCM3722 delta-hslV, growth: N-lim chemostat, doubling time 6 h
[4] = E. coli NCM3722 delta-lon, growth: N-lim chemostat, doubling time 6 h
[5] = E. coli NCM3722 delta-smpB, growth: N-lim chemostat, doubling time 6 h
[6] = wild type E. coli NCM3722, growth: C-lim chemostat, doubling time 3 h
[7] = wild type E. coli NCM3722, growth: C-lim chemostat, doubling time 6 h
[8] = wild type E. coli NCM3722, growth: C-lim chemostat, doubling time 12 h
[9] = wild type E. coli NCM3722, growth: N-lim chemostat, doubling time 6 h
[10] = wild type E. coli NCM3722, growth: N-lim chemostat, doubling time 12 h
[11] = wild type E. coli NCM3722, growth: P-lim chemostat, doubling time 6 h
[12] = wild type E. coli NCM3722, growth: P-lim chemostat, doubling time 12 h

Sequence	total protein half-life in vivo [1]	total protein half-life in vivo [2]	total protein half-life in vivo [3]	total protein half-life in vivo [4]	total protein half-life in vivo [5]	total protein half-life in vivo [6]	total protein half-life in vivo [7]	total protein half-life in vivo [8]	total protein half-life in vivo [9]	total protein half-life in vivo [10]	total protein half-life in vivo [11]	total protein half-life in vivo [12]
MSNTPIELKGSSFTLSVVHLHEAEPKVIHQALEDKIAQAPAFLKHAPVVLNVSALEDPVNWSAMHKAVSATGLRVIGVSGCKDAQLKAEIEKMGLPILTEGKEKAPRPAPTPQAPAQNTTPVTKTRLIDTPVRSGQRIYAPQCDLIVTSHVSAGAELIADGNIHVYGMMRGRALAGASGDRETQIFCTNLMAELVSIAGEYWLSDQIPAEFYGKAARLQLVENALTVQPLN	5.53 ± 0.29 h	5 ± 0.28 h	5.32 ± 0.053 h	5.84 ± 0.27 h	4.34 ± 0.23 h	2.977 ± 0.015 h	5.72 ± 0.27 h	9.85 ± 0.83 h	5.25 ± 0.7 h	8.75 ± 0.6 h	5.44 ± 0.24 h	11.2 ± 1 h
MSNTYQKRKASKEYGLYNQCKKLNDDELFRLLDDHNSLKRISSARVLQLRGGQDAVRLAIEFCSDKNYIRRDIGAFILGQIKICKKCEDNVFNILNNMALNDKSACVRATAIESTAQRCKKNPIYSPKIVEQSQITAFDKSTNVRRATAFAISVINDKATIPLLINLLKDPNGDVRNWAAFAININKYDNSDIRDCFVEMLQDKNEEVRIEAIIGLSYRKDKRVLSVLCDELKKNTVYDDIIEAAGELGDKTLLPVLDTMLYKFDDNEIITSAIDKLKRS [P0ADK6]	5.51 ± 0.25 h	4.904 ± 0.018 h	2.92 ± 1.5 h	2.68 ± 0.43 h	1.77 ± 0.26 h	2.016 ± 0.02 h	3.9 ± 0.61 h	5.23 ± 0.093 h	2.17 ± 0.22 h	2.62 ± 0.074 h	2.65 ± 0.32 h	4.89 ± 1 h
MSNVIASLEKVLLPFAVKIGKQPHVNAIKNGFIRLMPLTLAGAMFVLINNVFLSFGEGSFFYSLGIRLDASTIETLNGLKGIGGNVYNGTLGIMSLMAPFFIGMALAEERKVDALAAGLLSVAAFMTVTPYSVGEAYAVGANWLGGANIISGIIIGLVVAEMFTFIVRRNWVIKLPDSVPASVSRSFSALIPGFIILSVMGIIAWALNTWGTNFHQIIMDTISTPLASLGSVVGWAYVIFVPLLWFFGIHGALALTALDNGIMTPWALENIATYQQYGSVEAALAAGKTFHIWAKPMLDSFIFLGGSGATLGLILAIFIASRRADYRQVAKLALPSGIFQINEPILFGLPIIMNPVMFIPFVLVQPILAAITLAAYYMGIIPPVTNIAPWTMPTGLGAFFNTNGSVAALLVALFNLGIATLIYLPFVVVANKAQNAIDKEESEEDIANALKF			7.11 h		6.04 ± 0.73 h		6.68 ± 0.31 h	9.58 ± 2.1 h	6.51 h			13.3 h
MSPCKLLPFCVALALTGCSLAPDYQRPAMPVPQQFSLSQNGLVNAADNYQNAGWRTFFVDNQVKTLISEALVNNRDLRMATLKVQEARAQYRLTDADRYPQLNGEGSGSWSGNLKGNTATTREFSTGLNASFDLDFFGRLKNMSEAERQNYLATEEAQRAVHILLVSNVAQSYFNQQLAYAQLQIAEETLRNYQQSYAFVEKQLLTGSSNVLALEQARGVIESTRSDIAKRQGELAQANNALQLLLGSYGKLPQAQTVNSDSLQSVKLPAGLSSQILLQRPDIMEAEHALMAANANIGAARAAFFPSISLTSGISTASSDLSSLFNASSGMWNFIPKIEIPIFNAGRNQANLDIAEIRQQQSVVNYEQKIQNAFKEVADALALRQSLNDQISAQQRYLASLQITLQRARALYQHGAVSYLEVLDAERSLFATRQTLLDLNYARQVNEISLYTALGGG	6.75 h			5.11 ± 0.78 h	5.15 ± 2.9 h		7.18 h	> 16 h	6.34 ± 0.14 h	12.47 ± 0.09 h	6.29 ± 0.17 h	13.07 ± 0.062 h
MSQALKNLLTLLNLEKIEEGLFRGQSEDLGLRQVFGGQVVGQALYAAKETVPEERLVHSFHSYFLRPGDSKKPIIYDVETLRDGNSFSARRVAAIQNGKPIFYMTASFQAPEAGFEHQKTMPSAPAPDGLPSETQIAQSLAHLLPPVLKDKFICDRPLEVRPVEFHNPLKGHVAEPHRQVWIRANGSVPDDLRVHQYLLGYASDLNFLPVALQPHGIGFLEPGIQIATIDHSMWFHRPFNLNEWLLYSVESTSASSARGFVRGEFYTQDGVLVASTVQEGVMRNHN [P0AGG2]	5.35 ± 0.059 h	5.17 ± 0.18 h	4.986 ± 0.04 h	5.37 ± 0.47 h	5.17 ± 0.67 h		6.42 ± 0.37 h	10.69 ± 0.082 h	5.04 ± 0.13 h	8.59 ± 0.29 h	5.922 ± 0.027 h	13.018 ± 0.0091 h
MSQHNEKNPHQHQSPLHDSSEAKPGMDSLAPEDGSHRPAAEPTPPGAQPTAPGSLKAPDTRNEKLNSLEDVRKGSENYALTTNQGVRIADDQNSLRAGSRGPTLLEDFILREKITHFDHERIPERIVHARGSAAHGYFQPYKSLSDITKADFLSDPNKITPVFVRFSTVQGGAGSADTVRDIRGFATKFYTEEGIFDLVGNNTPIFFIQDAHKFPDFVHAVKPEPHWAIPQGQSAHDTFWDYVSLQPETLHNVMWAMSDRGIPRSYRTMEGFGIHTFRLINAEGKATFVRFHWKPLAGKASLVWDEAQKLTGRDPDFHRRELWEAIEAGDFPEYELGFQLIPEEDEFKFDFDLLDPTKLIPEELVPVQRVGKMVLNRNPDNFFAENEQAAFHPGHIVPGLDFTNDPLLQGRLFSYTDTQISRLGGPNFHEIPINRPTCPYHNFQRDGMHRMGIDTNPANYEPNSINDNWPRETPPGPKRGGFESYQERVEGNKVRERSPSFGEYYSHPRLFWLSQTPFEQRHIVDGFSFELSKVVRPYIRERVVDQLAHIDLTLAQAVAKNLGIELTDDQLNITPPPDVNGLKKDPSLSLYAIPDGDVKGRVVAILLNDEVRSADLLAILKALKAKGVHAKLLYSRMGEVTADDGTVLPIAATFAGAPSLTVDAVIVPCGNIADIADNGDANYYLMEAYKHLKPIALAGDARKFKATIKIADQGEEGIVEADSADGSFMDELLTLMAAHRVWSRIPKIDKIPA	6.34 ± 0.49 h	6.14 ± 0.56 h	5.76 ± 0.4 h	5.78 ± 0.094 h	5.28 ± 0.077 h	2.79 ± 0.4 h	5.76 ± 0.23 h	10.8 ± 0.26 h	5.81 ± 0.24 h	12.3 ± 1.9 h	5.88 ± 0.41 h	11.9 ± 0.53 h
MSQIFAYCRISTLDQTTENQRREIESAGFKIKPQQIIEEHISGSAATSERPGFNRLLARLKCGDQLIVTKLDRLGCNAMDIRKTVEQLTETGIRVHCLALGGIDLTSPTGKMMMQVISAVAEFERDLLLERTHSGIVRARGAGKRFGRPPVLNEEQKQAVFERIKSGVSISAIAREFKTSRQTILRAKAKLQTPDI	5.84 ± 0.17 h			3.81 h	1.43 h	1.59 h		4.26 h				
